# Measured values reported in patent publication US20180195091A1, “THERMOPHILIC MICROORGANISMS FOR CONVERSION OF LIGNOCELLULOSIC BIOMASS TO ETHANOL” (THE TRUSTEES OF DARTMOUTH COLLEGE, priority 2015, published 2018).
# “And” between values parts separate entries of the source, which are not always exact repeats. Equal values may be shown once.
# B1: (Acetivibrio thermocellus; D494G) (protein)
# chain: MTKIANKYEVIDNVEKLEKALKRLREAQSVYATYTQEQVDKIFFEAAMAANKMRIPLAKMAVEETGMGVVEDKVIKNHYASEYIYNAYKNTKTCGVIEEDPAFGIKKIAEPLGVIAAVIPTTNPTSTAIFKTLIALKTRNAIIISPHPRAKNSTIEAAKIVLEAAVKAGAPEGIIGWIDVPSLELTNLVMREADVILATGGPGLVKAAYSSGKPAIGVGAGNTPAIIDDSADIVLAVNSIIHSKTFDNGMICASEQSVIVLDGVYKEVKKEFEKRGCYFLNEDETEKVRKTIIINGALNAKIVGQKAHTIANLAGFEVPETTKILIGEVTSVDISEEFAHEKLCPVLAMYRAKDFDDALDKAERLVADGGFGHTSSLYIDTVTQKEKLQKFSERMKTCRILVNTPSSQGGIGDLYNFKLAPSLTLGCGSWGGNSVSDNVGVKHLLNIKTVAERRENMLWFRTPEKIYIKRGCLPVALDELKNVMGKKKAFIVTGNFLYNNGYTKPITDKLDEMGIVHKTFFDVSPDPSLASAKAGAAEMLAFQPDTIIAVGGGSAMDAAKIMWVMYEHPEVDFMDMAMRFMDIRKRVYTFPKMGQKAYFIAIPTSAGTGSEVTPFAVITDEKTGIKYPLADYELLPDMAIVDADMMMNAPKGLTAASGIDALTHALEAYVSMLATDYTDSLALRAIKMIFEYLPRAYENGASDLVAREKMANAATIAGMAFANAFLGVCHSMARKLGAFYHLPHGVANALMINEVIRFNSSEAPTKMGTFPQYDHPRTLERYAEIADYIGLKGKNNEEKVENLIKAIDELKEKVGIRKTIKDYDIDEKEFLDRLDEMVEQAFDDQCTGTNPRYPLMNEIRQMYLNAYYGGAKK
# B2: (Acetivibrio thermocellus) (protein)
# chain: MTKIANKYEVIDNVEKLEKALKRLREAQSVYATYTQEQVDKIFFEAAMAANKMRIPLAKMAVEETGMGVVEDKVIKNHYASEYIYNAYKNTKTCGVIEEDPAFGIKKIAEPLGVIAAVIPTTNPTSTAIFKTLIALKTRNAIIISPHPRAKNSTIEAAKIVLEAAVKAGAPEGIIGWIDVPSLELTNLVMREADVILATGGPGLVKAAYSSGKPAIGVGAGNTPAIIDDSADIVLAVNSIIHSKTFDNGMICASEQSVIVLDGVYKEVKKEFEKRGCYFLNEDETEKVRKTIIINGALNAKIVGQKAHTIANLAGFEVPETTKILIGEVTSVDISEEFAHEKLCPVLAMYRAKDFDDALDKAERLVADGGFGHTSSLYIDTVTQKEKLQKFSERMKTCRILVNTPSSQGGIGDLYNFKLAPSLTLGCGSWGGNSVSDNVGVKHLLNIKTVAERRENMLWFRTPEKIYIKRGCLPVALDELKNVMGKKKAFIVTDNFLYNNGYTKPITDKLDEMGIVHKTFFDVSPDPSLASAKAGAAEMLAFQPDTIIAVGGGSAMDAAKIMWVMYEHPEVDFMDMAMRFMDIRKRVYTFPKMGQKAYFIAIPTSAGTGSEVTPFAVITDEKTGIKYPLADYELLPDMAIVDADMMMNAPKGLTAASGIDALTHALEAYVSMLATDYTDSLALRAIKMIFEYLPRAYENGASDLVAREKMANAATIAGMAFANAFLGVCHSMARKLGAFYHLPHGVANALMINEVIRFNSSEAPTKMGTFPQYDHPRTLERYAEIADYIGLKGKNNEEKVENLIKAIDELKEKVGIRKTIKDYDIDEKEFLDRLDEMVEQAFDDQCTGTNPRYPLMNEIRQMYLNAYYGGAKK
# How the values were obtained:
# [1] = target: Clostridium thermocellum LL346 (ethanol-tolerant) AdhE, mutations P704L and H734R (Acetivibrio thermocellus, UniProt A3DCI2, H734R/P704L)
# [2] = system: purified AdhE proteins in C. thermocellum, with the exception of LL346; test: Product inhibition of purified AdhE; format: biochemical, Clostridium thermocellum; details: concentration not stated
# Protocol: The E. coli crude extracts described above were incubated at 50° C. anaerobically for 20 min to denature E. coli proteins, and the denatured proteins were separated by centrifugation. In strains LL346 and LL1040, the AdhE proteins were heat labile, and lost activity after 50° C. incubation, so these cell extracts were applied directly to the purification column without heating. E. coli cells expressing the control plasmid pNT-CALML3 were subject to the same treatment as above, and its ADH and ALDH activities before and after heat treatment were measured (Table S3). […] For C. thermocellum and T. saccharolyticum AdhE, activity was measured at various stages during purification. […]
# All the ALDH activity measurements mentioned in this study refer to the reaction in the acetaldehyde-producing direction. […] Decrease in absorbance at 340 nm caused by NAD(P)H oxidation was monitored by an Agilent 8453 UV-Vis spectrophotometer with Peltier temperature control. Protein concentration was determined using the Bradford method with bovine serum albumin (Thermo Scientific) as the standard. Specific activities are expressed as units per mg of protein. […] The software Visual Enzymics (SoftZymics) was used for non-linear regression to calculate the apparent Km, and kcat values in Table 10. kcat was calculated on the basis of a molecular weight of 97-kDa (26). […]
# [3] = substrate: CC=O; test: purified protein, by the assay type; details: pH 7.0; 55.0 °C
# [4] = substrate: NC(=O)C1=CN([C@@H]2O[C@H](COP(=O)(O)OP(=O)(O)OC[C@H]3O[C@@H](n4cnc5c(N)ncnc54)[C@H](OP(=O)(O)O)[C@@H]3O)[C@@H](O)[C@H]2O)C=CC1; test: purified protein, by the assay type; details: pH 7.0; 55.0 °C
# [5] = substrate: NC(=O)C1=CN([C@@H]2O[C@H](COP(=O)(O)OP(=O)(O)OC[C@H]3O[C@@H](n4cnc5c(N)ncnc54)[C@H](O)[C@@H]3O)[C@@H](O)[C@H]2O)C=CC1; test: purified protein, by the assay type; details: pH 7.0; 55.0 °C
# [6] = substrate: CC(=O)SCCNC(=O)CCNC(=O)[C@H](O)C(C)(C)COP(=O)(O)OP(=O)(O)OC[C@H]1O[C@@H](n2cnc3c(N)ncnc32)[C@H](O)[C@@H]1OP(=O)(O)O; test: purified protein, by the assay type; details: pH 7.0; 55.0 °C
# [7] = substrate: NC(=O)C1=CN([C@@H]2O[C@H](COP(=O)(O)OP(=O)(O)OC[C@H]3O[C@@H](n4cnc5c(N)ncnc54)[C@H](O)[C@@H]3O)[C@@H](O)[C@H]2O)C=CC1; test: purified protein, by the assay type; details: pH 7.0; 55.0 °C; remark: listed apart in the source
# [8] = substrate: CC(=O)SCCNC(=O)CCNC(=O)[C@H](O)C(C)(C)COP(=O)(O)OP(=O)(O)OC[C@H]1O[C@@H](n2cnc3c(N)ncnc32)[C@H](O)[C@@H]1OP(=O)(O)O; test: ALDH reaction (acetyl-CoA reduction) of purified AdhE, apparent kinetics; format: biochemical, Clostridium thermocellum; details: pH 7.0; 55.0 °C
# Protocol: (§1) 500 μL of E. coli culture containing a plasmid with the adhE gene of interest was inoculated into 100 mL sterile LB broth Miller (Acros) with the appropriate antibiotic, and were grown aerobically to OD600 0.5 with shaking at 200 rpm at 37° C. (Eppendorf Innova 42 shaker). The E. coli strain harboring the pNT-CALML3 control plasmid (Invitrogen) was used as a negative control to measure native E. coli ADH or ALDH activity. The cultures were then transferred to sterile serum bottles, and 40 mM IPTG (Isopropyl β-D-1-thiogalactopyranoside) was used to induce protein expression. The serum bottles were then purged with nitrogen to generate an anaerobic protein expression environment, and the cells were cultured for 2 h at 37° C. before harvesting.
# (§2) The E. coli crude extracts described above were incubated at 50° C. anaerobically for 20 min to denature E. coli proteins, and the denatured proteins were separated by centrifugation. In strains LL346 and LL1040, the AdhE proteins were heat labile, and lost activity after 50° C. incubation, so these cell extracts were applied directly to the purification column without heating. E. coli cells expressing the control plasmid pNT-CALML3 were subject to the same treatment as above, and its ADH and ALDH activities before and after heat treatment were measured (Table S3). The cell extracts containing His-tagged AdhE were then subjected to anaerobic affinity column purification (Ni-NTA spin columns, Qiagen). The purification was carried out according to the Qiagen protocol “Ni-NTA Agarose Purification of 6×His-tagged Proteins from E. coli under Native Conditions” with some modifications as described below. The column was first equilibrated with Equilibrium Buffer (50 mM NaH2PO4, 300 mM NaCl, 5 mM imidazole, 5 μM FeSO4, pH 7), then cell extracts were applied to the column and the column was washed twice with Wash Buffer (50 mM NaH2PO4, 300 mM NaCl, 50 mM imidazole, 20% ethanol, 5 μM FeSO4, pH 7). The His-tagged AdhE was eluted by addition of 200 μL Elution Buffer (50 mM NaH2PO4, 300 mM NaCl, 500 mM imidazole, 5 μM FeSO4, pH 7), this is “Eluent 1” in Table S3 and S4. Repeating this elution step sequentially generated more purified “Eluent 2” and “Eluent 3”. For C. thermocellum and T. saccharolyticum AdhE, activity was measured at various stages during purification. […] The degree of protein purity was estimated by gel densitometry using the image analysis software ImageJ, where the density of each visible gel band from Eluent 3 was plotted as peaks. The area of each peak was then integrated to generate percentages, which is an indicator of AdhE purity E. coli cell extracts with native AdhE expressed (i.e. without the His-tag) were used directly without purification.
# (§3) All the ALDH activity measurements mentioned in this study refer to the reaction in the acetaldehyde-producing direction. All the ADH activity measurements mentioned in this study refer to the reaction in the ethanol-producing direction. For ADH (acetaldehyde reduction) reactions, the anaerobic reaction mixture contained 0.24 mM NADH or NADPH, 17.6 mM acetaldehyde, 1 mM DTT, 100 mM Tris-HCl, 5 μM FeSO4 and cell extract or purified protein solution (protein amount indicated separately for each assay). The final volume was 850 μL, the assay temperature was 55° C. and the assay was started by the addition of acetaldehyde. For ALDH (acetyl-CoA reduction) reactions, the acetaldehyde in the above anaerobic reaction mixture was substituted with 0.35 mM acetyl-CoA. Decrease in absorbance at 340 nm caused by NAD(P)H oxidation was monitored by an Agilent 8453 UV-Vis spectrophotometer with Peltier temperature control. Protein concentration was determined using the Bradford method with bovine serum albumin (Thermo Scientific) as the standard. Specific activities are expressed as units per mg of protein. One unit of activity=formation of 1 μmol of product per min Specific activities in Table 8 and Table 9 are reported for at least two biological replicates. […]
# [9] = substrate: NC(=O)C1=CN([C@@H]2O[C@H](COP(=O)(O)OP(=O)(O)OC[C@H]3O[C@@H](n4cnc5c(N)ncnc54)[C@H](O)[C@@H]3O)[C@@H](O)[C@H]2O)C=CC1; test: as above; format: biochemical, Clostridium thermocellum; details: pH 7.0; 55.0 °C
# Protocol: as §1, §2, §3
# [10] = substrate: CC=O; test: ADH reaction (acetaldehyde reduction) of purified AdhE, apparent kinetics; format: biochemical, Clostridium thermocellum; details: pH 7.0; 55.0 °C
# Protocol: as §1, §2, §3
# [11] = substrate: NC(=O)C1=CN([C@@H]2O[C@H](COP(=O)(O)OP(=O)(O)OC[C@H]3O[C@@H](n4cnc5c(N)ncnc54)[C@H](O)[C@@H]3O)[C@@H](O)[C@H]2O)C=CC1; test: as above; format: biochemical, Clostridium thermocellum; details: pH 7.0; 55.0 °C
# Protocol: as §1, §2, §3
# [12] = in the presence of 2.35 mM NAD^+
molecule,measurement,setting,value
NC(=O)c1ccc[n+]([C@@H]2O[C@H](COP(=O)([O-])OP(=O)(O)OC[C@H]3O[C@@H](n4cnc5c(N)ncnc54)[C@H](O)[C@@H]3O)[C@@H](O)[C@H]2O)c1 [NAD^+],ADH activity retained,[1]; [12],98%
same,ALDH activity retained,[1]; [12],92%
same,inhibition by NAD^+,"[1]; purified AdhE, concentration not stated",less than 10%
CCO [ethanol],increase in ADH activity,[1]; purified adhe,2 fold
NAD(P)^+,activity inhibited by NAD(P)^+,[2],at least 70%
B1,Km,[3],2100 ± 200 µM and 1800 ± 200 µM
same,kcat,[3],318 s⁻¹ and 246 s⁻¹
same,kcat/Km,[3],150000 M⁻¹ s⁻¹ and 140000 M⁻¹ s⁻¹
same,Km,[4],80 ± 20 µM
same,kcat,[4],295 ± 18 s⁻¹
same,kcat/Km,[4],3.8e+06 M⁻¹ s⁻¹
same,Km,[5],400 ± 50 µM
same,kcat,[5],319 ± 21 s⁻¹
same,kcat/Km,[5],890000 M⁻¹ s⁻¹
same,Km,[6],4 ± 0.5 µM
same,kcat,[6],202 ± 4 s⁻¹
same,kcat/Km,[6],5.8e+07 M⁻¹ s⁻¹
same,Km,[7],20 ± 2 µM
same,kcat,[7],64 ± 2 s⁻¹
same,kcat/Km,[7],3.4e+06 M⁻¹ s⁻¹
B2,Km,[8],8 ± 2 µM
same,kcat,[8],297 ± 11 s⁻¹
same,kcat/Km,[8],3.5e+07 M⁻¹ s⁻¹
same,Km,[9],60 ± 4 µM
same,kcat,[9],152 ± 4 s⁻¹
same,kcat/Km,[9],2.8e+06 M⁻¹ s⁻¹
same,Km,[10],1300 ± 200 µM
same,kcat,[10],238 ± 8 s⁻¹
same,kcat/Km,[10],180000 M⁻¹ s⁻¹
same,Km,[11],100 ± 20 µM
same,kcat,[11],302 ± 13 s⁻¹
same,kcat/Km,[11],2.3e+06 M⁻¹ s⁻¹
